Measured values reported in patent US20240343799A1 (Innovent, published 2024).

T1: CD79b on the surface of B-cell non-Hodgkin's lymphoma cells (human, UniProt P40259 29-229)
T1 construct: whole, on cells; Endogenous CD79b of the cell lines; on cells it stands in the B cell receptor complex with CD79a; also called CD79b on Ramos cells; CD79b on BJAB cells
T1 sequence (looked up): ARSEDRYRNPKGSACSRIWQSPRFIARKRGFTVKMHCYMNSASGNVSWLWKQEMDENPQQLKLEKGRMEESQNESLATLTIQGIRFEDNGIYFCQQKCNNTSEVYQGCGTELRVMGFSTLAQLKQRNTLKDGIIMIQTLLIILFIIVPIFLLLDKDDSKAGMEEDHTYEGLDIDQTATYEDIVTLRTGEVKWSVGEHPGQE

T2: human CD79b (recombinant antigen in the ForteBio assays) (human, UniProt P40259 29-159)
T2 construct: the immunogen was CD79b protein from Sino, Cat #29750-H08H; also called huCD79b
T2 sequence (looked up): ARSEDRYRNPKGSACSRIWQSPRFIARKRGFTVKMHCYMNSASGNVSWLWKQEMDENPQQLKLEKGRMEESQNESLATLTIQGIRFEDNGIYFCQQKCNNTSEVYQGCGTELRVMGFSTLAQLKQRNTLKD

T3: monkey CD3E & CD3G-biotin (Sino biological) (cynomolgus monkey, UniProt Q95LI5 22-117; Q95LI7 23-113, limits assumed)
T3 construct: also called Cyno CD3E&G; monkey CD3E&G
T3 sequence (looked up) 1: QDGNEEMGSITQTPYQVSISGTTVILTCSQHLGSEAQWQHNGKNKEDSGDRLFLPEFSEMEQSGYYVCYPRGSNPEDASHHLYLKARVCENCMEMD
T3 sequence (looked up) 2: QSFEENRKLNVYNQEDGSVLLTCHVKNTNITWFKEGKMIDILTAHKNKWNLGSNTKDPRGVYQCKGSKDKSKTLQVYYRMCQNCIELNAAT

T4: human CD79b-his (Sino biological) (human, UniProt P40259 29-159)
T4 construct: Amine-coupled to the Biacore chip (about 50 RU); not shown: His tag
T4 sequence (looked up): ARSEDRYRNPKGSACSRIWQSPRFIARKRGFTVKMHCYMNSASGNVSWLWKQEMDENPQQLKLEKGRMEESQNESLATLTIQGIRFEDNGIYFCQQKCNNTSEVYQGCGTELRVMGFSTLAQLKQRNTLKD


Assays:
[1] = target: T1, CD79b on the surface of B-cell …; assay: flow cytometry on Ramos cells, goat anti-human IgG PE
Method: (§1) Ramos (ATCC, Cat #CRL-1596) and BJAB (AddexBio, USA, Cat #C0003016) were passaged according to the conventional procedures. Cells were counted after centrifugation and resuspension, adjusted to a density of 4×10⁶ cells/mL, poured into a loading tank, and seeded to a 96-well plate at 50 μL/well using a multichannel pipettor. 50 μL of the antibody sample diluted in gradient was added to the 50 μL of cells in each well, and the mixture was then incubated in an incubator at 5% CO₂ and 37° C. for 30 min. The mixture was centrifuged at 400 g for 5 min, then 200 μL of PBS was added, and the resulting mixture was centrifuged at 400 g for 5 min. This procedure was repeated 3 times. Goat anti-human IgG PE (1:200) was added, and the mixture was incubated for 30 min in the dark at room temperature. The mixture was washed with 200 μL of PBS twice, centrifuged, and then resuspended in 100 μL of PBS, and the values were read using a flow cytometer. The values were fitted to obtain a curve and EC₅₀ values were calculated.
(§2) The binding of the humanized antibodies to Ramos and BJAB cells was detected by flow cytometry. The assay was the same as in Example 4. The binding of the humanized antibodies to CD79b on the surface of Ramos cells is shown in FIG. 3; the binding of the humanized antibodies to CD79b on the surface of BJAB cells is shown in FIG. 4.

[2] = target: T2, human CD79b (recombinant antigen in the …); assay: BLI (ForteBio), antibody loaded on sensor, antigen in solution
Method: Briefly, an AMQ (Pall, 1506091) sensor was equilibrated offline in an assay buffer for 30 min and then equilibrated online for 60 s to establish a baseline. The purified antibodies obtained as described above were each loaded online onto an AHQ sensor (ForteBio) for the ForteBio affinity assay. The sensor with the loaded antibody was then exposed to antigen CD79b before transferring the sensor to the assay buffer to measure the dissociation rate. The KD values were analyzed using ForteBio analysis software.
The equilibrium dissociation constants (KD) for the binding of the humanized antibodies of the present invention to human CD79b were determined by ForteBio.

[3] = target: T1, CD79b on the surface of B-cell …; assay: flow cytometry on BJAB cells, goat anti-human IgG PE
Method: as §1, §2

[4] = target: T1, CD79b on the surface of B-cell …; assay: flow cytometry on WSU-DLCL2 cells, goat anti-human IgG PE
Method: (§3) The binding ability of the CD79b/CD3 bispecific antibodies for CD79b-positive B-cell non-Hodgkin's lymphoma cell lines was detected by flow cytometry.
(§4) BJAB (AddexBio, USA, Cat #C0003016) and WSU-DLCL2 (Nanjing Kebai Biotechnology Co., Ltd., Cat #CBP60273) were cultured and passaged according to the conventional procedures. Cells were counted after centrifugation and resuspension, adjusted to a density of 4×10⁶ cells/mL, poured into a loading tank, and seeded to a 96-well plate at 50 μL/well using a multichannel pipettor. 50 μL of the antibody sample diluted in gradient was added to the 50 μL of cells in each well, and the mixture was then incubated in an incubator at 5% CO₂ and 37° C. for 30 min. The mixture was centrifuged at 400 g for 5 min, then 200 μL of PBS was added, and the resulting mixture was centrifuged at 400 g for 5 min. This procedure was repeated 3 times. Goat anti-human IgG PE (1:200) was added, and the mixture was incubated for 30 min in the dark at room temperature. The mixture was washed with 200 μL of PBS twice, centrifuged, and then resuspended in 100 μL of PBS, and the values were read using a flow cytometer. The values were fitted to obtain a curve and EC₅₀ values were calculated.

[5] = target: T5, human CD3E & CD3G-biotin (Sino biological) (human, UniProt P07766 23-126; P09693 23-116, limits assumed); assay: SPR (Biacore T200), biotinylated CD3E&CD3G on streptavidin chip, antibody injected
T5 construct: also called Human CD3E&G
Method: (§5) The binding kinetics of exemplary anti-CD79b/CD3 antibodies of the present invention for human CD79b, human CD3, and cynomolgus monkey CD3 were determined using surface plasmon resonance (Biacore T200). (1) Affinity assay of antibodies for human CD79b-his (Sino biological): 50 mM N-hydroxysuccinimide (NHS) and 200 mM 1-ethyl-3-(3-dimethylaminopropyl) carbodiimide hydrochloride (EDC) were freshly mixed and activated for 420 s at a flow rate of 10 μL/min. Human CD79b-His antigen was then diluted in 10 mM Acetate (pH 5.0), and after dilution to a concentration of 1 μg/mL, the antigen solution was subjected to coupling and the value was approximately 50 RU. Then 1 M ethanolamine was injected at a flow rate of 10 μL/min for 420 s to block the remaining activation sites. The buffer used in the experiment was HBS-EP+ solution at pH 7.4, and under a high performance mode, the antibodies obtained after 2-fold gradient dilution (0-80 nM) were each injected, according to an ascending order based on concentrations, into the channels 1, 2, 3 and 4 of the chip at a flow rate of 30 μL/min, wherein one cycle was used for determination of one concentration, the binding time was 180 s, and the dissociation time was 600 s. (2) Affinity assay of antibodies for human CD3E & CD3G-biotin (Sino biological) and monkey CD3E & CD3G-biotin (Sino biological): 50 mM NHS and 200 mM EDC were freshly mixed and activated for 420 s at a flow rate of 10 μL/min. Streptavidin (Thermo Fisher scientific) protein was then diluted in 10 mM Acetate (pH 4.5) and after dilution to a concentration of 10 μg/mL, the antigen solution was subjected to coupling and the value was approximately 3000 RU. Then 1 M ethanolamine was injected at a flow rate of 10 μL/min for 420 s to block the remaining activation sites. Human CD3E & CD3G-biotin and monkey CD3E & CD3G-biotin proteins were each immobilized on the chip channels coupled with Streptavidin protein. The antibodies (0-16 nM or 0-40 nM or 0-200 nM) obtained after 2-fold gradient dilution were each injected, according to an ascending order based on concentrations, into the channels 1, 2, 3 and 4 of the chip at a flow rate of 30 μL/min, wherein one cycle was used for determination of one concentration, the binding time was 180 s, and the dissociation time was 300 s.

[6] = target: T3, monkey CD3E & CD3G-biotin (Sino …); assay: SPR (Biacore T200), biotinylated monkey CD3E&CD3G on streptavidin chip, antibody injected
Method: as §5

[7] = target: T4, human CD79b-his (Sino biological); assay: SPR (Biacore T200), CD79b-His coupled to chip, antibody injected
Method: as §5

[8] = target: T1, CD79b on the surface of B-cell …; assay: flow cytometry on BJAB cells, goat anti-human IgG PE; remark: listed apart in the source
Method: as §3, §4

T5 sequence (P07766 23-126 limits assumed, chain 1 of 2): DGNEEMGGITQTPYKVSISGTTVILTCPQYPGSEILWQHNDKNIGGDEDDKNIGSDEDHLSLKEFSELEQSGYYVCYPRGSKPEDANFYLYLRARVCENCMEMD
T5 sequence (P09693 23-116 limits assumed, chain 2 of 2): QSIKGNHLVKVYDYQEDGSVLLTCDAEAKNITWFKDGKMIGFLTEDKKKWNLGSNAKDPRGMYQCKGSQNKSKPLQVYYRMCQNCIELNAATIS

Row | Binder | EC50 (read off the curve) [1] | Kd [2] | EC50 (read off the curve) [3] | EC50 (read off the curve) [4] | Kd [5] | koff [5] | kon [5] | Kd [6] | koff [6] | kon [6] | Kd [7] | koff [7] | kon [7] | EC50 (read off the curve) [8]
1 | 11G10.9.p1/sp34.87 (bispecific antibody, human IgG1, kappa, lambda, L234A L235A, also called 11G10.9.p1 x HzSP34.87) heavy 1: not shown light 1: DIVMTQTPLSLSVTPGQPASISCKSSQSLLDSEGKTYLNWLLQKPGQSPQSLIYLVSKLDSGVPDRFSGSGSGTDFTLKISRVEAEDVGVYYCWQGTHFPLTFGGGTKVEIKRTVAAPSVFIFPPSDEQLKSGTASVVCLLNNFYPREAKVQWKVDNALQSGNSQESVTEQDSKDSTYSLSSTLTLSKADYEKHKVYACEVTHQGLSSPVTKSFNRGEC heavy 2: not shown light 2: QAVVTQEPSLTVSPGGTVTLTCRSSTGAVTTSNYANWVQQKPGQAPRGLIGGTNKRAPGVPARFSGSLLGDKAALTLLGAQPEDEAEYYCALWYSNLWVFGQGTKLTVLGQPKAAPSVTLFPPSSEELQANKATLVCLISDFYPGAVTVAWKADSSPVKAGVETTTPSKQSNNKYAASSYLSLTPEQWKSHRSYSCQVTHEGSTVEKTVAPTECS |  |  |  | ~30 nM | 107 nM | 0.0331 s⁻¹ | 308000 M⁻¹ s⁻¹ | 202 nM | 0.0336 s⁻¹ | 167000 M⁻¹ s⁻¹ | 4.5 nM | 0.00208 s⁻¹ | 461000 M⁻¹ s⁻¹ | ~20 nM
2 | CD79b.A7v14b/38E4v1 (bispecific antibody, human IgG1, kappa, L234A L235A, also called CD79b.A7v14b x 38E4v1) heavy 1: not shown light 1: DIVMTQTPLSLPVTPGQPASISCKSSQSLLDSDGKTYLNWLLQKPGQSPQSLIYLVSKLDSGVPDRFSGSGSGTDFTLKISRVEAEDVGVYYCWQGTHFPQTFGQGTKVEIKRTVAAPSVFIFPPSDEQLKSGTASVVCLLNNFYPREAKVQWKVDNALQSGNSQESVTEQDSKDSTYSLSSTLTLSKADYEKHKVYACEVTHQGLSSPVTKSFNRGEC heavy 2: not shown light 2: not shown |  |  |  | ~20 nM | 1 nM | 0.00296 s⁻¹ | 2.96e+06 M⁻¹ s⁻¹ | 1.52 nM | 0.00285 s⁻¹ | 1.88e+06 M⁻¹ s⁻¹ | 8.66 nM | 0.00701 s⁻¹ | 809000 M⁻¹ s⁻¹ | ~10 nM
3 | 11G10.9.p1/sp34.24 (bispecific antibody, human IgG1, kappa, lambda, L234A L235A, also called 11G10.9.p1 x HzSP34.24) heavy 1: not shown light 1: DIVMTQTPLSLSVTPGQPASISCKSSQSLLDSEGKTYLNWLLQKPGQSPQSLIYLVSKLDSGVPDRFSGSGSGTDFTLKISRVEAEDVGVYYCWQGTHFPLTFGGGTKVEIKRTVAAPSVFIFPPSDEQLKSGTASVVCLLNNFYPREAKVQWKVDNALQSGNSQESVTEQDSKDSTYSLSSTLTLSKADYEKHKVYACEVTHQGLSSPVTKSFNRGEC heavy 2: not shown light 2: QAVVTQEPSLTVSPGGTVTLTCRSSTGAVTTSNYANWVQQKPGQAPRGLIGGTNKRAPGVPARFSGSLLGDKAALTLLGAQPEDEAEYYCALWYSNLWVFGQGTKLTVLGQPKAAPSVTLFPPSSEELQANKATLVCLISDFYPGAVTVAWKADSSPVKAGVETTTPSKQSNNKYAASSYLSLTPEQWKSHRSYSCQVTHEGSTVEKTVAPTECS |  |  |  | ~30 nM | 6.25 nM | 0.00531 s⁻¹ | 851000 M⁻¹ s⁻¹ | 10.7 nM | 0.0061 s⁻¹ | 570000 M⁻¹ s⁻¹ | 2.16 nM | 0.00176 s⁻¹ | 815000 M⁻¹ s⁻¹ | ~20 nM

Next, values leading:

Row | EC50 (read off the curve) [1] | Kd [2] | EC50 (read off the curve) [3] | EC50 (read off the curve) [4] | Kd [5] | koff [5] | kon [5] | Kd [6] | koff [6] | kon [6] | Kd [7] | koff [7] | kon [7] | EC50 (read off the curve) [8] | Binder
4 | ~20 nM | 2.53 nM | ~10 nM |  |  |  |  |  |  |  |  |  |  |  | hz34F1.14 (antibody, V domains shown) VH: QVQLVQSGAEVKKPGASVKVSCKASGYSFTTYWMNWVRQAPGQGLTWMGMIDPSDSETHYNHLFKDRVTMTVDKSTSTAYMELSSLRSEDTAVYYCTRAIGYWGQGTLVTVSS VL: DVVMTQSPLSLPVTLGQPASISCKSSLSLLDSEGKTYLNWFQQRPGQSPRPLISLVSKLDSGVPDRFSGSGSGTDFTLKISRVEAEDVGVYYCWQGTHFPLTFGGGTKVEIK
5 | ~5 nM | 1.35 nM | ~4 nM |  |  |  |  |  |  |  |  |  |  |  | hz11G10.9.p1 (antibody, V domains shown, Humanized monospecific anti-CD79b antibody; also called 11G10.9.01) VH: QVQLVQSGAEVKKPGASVKVSCKASGYTFTDYWVNWVRQAPGQGLEWMGMIDPSDSETHYNQMFNDRVTMTVDTSTSTVYMELSSLRSEDTAVYYCTRSNYYWGQGTLVTVSS VL: DIVMTQTPLSLSVTPGQPASISCKSSQSLLDSEGKTYLNWLLQKPGQSPQSLIYLVSKLDSGVPDRFSGSGSGTDFTLKISRVEAEDVGVYYCWQGTHFPLTFGGGTKVEIK
